Molecular target: His6-eIF4A1 (UniProt P60843 1-406)
Experiment: fluorescence polarization

Sequence of His6-eIF4A1 (P60843 whole entry): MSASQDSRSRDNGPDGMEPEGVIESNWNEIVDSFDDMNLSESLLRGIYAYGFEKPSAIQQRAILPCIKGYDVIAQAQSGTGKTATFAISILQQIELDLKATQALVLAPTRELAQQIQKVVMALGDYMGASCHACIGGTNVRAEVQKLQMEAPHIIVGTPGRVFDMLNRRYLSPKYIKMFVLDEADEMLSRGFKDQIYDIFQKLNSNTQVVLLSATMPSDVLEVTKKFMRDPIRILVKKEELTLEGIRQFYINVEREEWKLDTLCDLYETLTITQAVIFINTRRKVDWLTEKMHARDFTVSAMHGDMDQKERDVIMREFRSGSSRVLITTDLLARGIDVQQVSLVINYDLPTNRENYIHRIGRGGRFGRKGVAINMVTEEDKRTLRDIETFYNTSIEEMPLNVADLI

AGAGAGAGAGAGAGAG (ssRNA) [r(AG)8]
binding result: binds

Source: publication PMC7077502
